According to paper PMC3214078, “The PHD Finger of Human UHRF1 Reveals a New Subgroup of Unmethylated Histone H3 Tail Readers” (PLoS ONE, 2011):
Where no end group is shown, it is not given here. Me3 = trimethyl-lysine

T1: huUHRF1-PHD(296–367), PHD finger of human UHRF1 with the additional N-terminal zinc finger (human, UniProt Q96T88 296-367)
T1 construct: Vector pHGGWA (Gateway); also called ICBP90 PHD finger
T1 sequence (looked up): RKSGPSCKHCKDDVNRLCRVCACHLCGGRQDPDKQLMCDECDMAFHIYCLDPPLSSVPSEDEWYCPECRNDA

T2: huUHRF1-PHD(296–367) D334A (human, UniProt Q96T88 296-367, D334A)
T2 sequence (looked up): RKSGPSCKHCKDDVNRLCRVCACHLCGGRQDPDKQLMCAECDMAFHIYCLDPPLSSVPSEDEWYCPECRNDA

T3: huUHRF1-PHD(296–367) D337A (human, UniProt Q96T88 296-367, D337A)
T3 sequence (looked up): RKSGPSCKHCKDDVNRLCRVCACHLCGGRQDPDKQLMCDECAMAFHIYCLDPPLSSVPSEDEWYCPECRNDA


Experiments:
Details in all cases: both partners purified
[1] = target: T1, huUHRF1-PHD(296–367), PHD finger of …; experiment: crystal structure; huUHRF1-PHD(296–367) at 606 µM with a 10-fold excess of H3 peptide (1–8); vapor diffusion at 17°C, 0.1 M Tris pH 8.5, 0.2 M MgCl2, 30% PEG 4000; 1.95 Å
[2] = target: T1, huUHRF1-PHD(296–367), PHD finger of …; experiment: ITC; 20°C; histone peptides (1–12Y, 1.5–2 mM) injected into huUHRF1-PHD (0.12–0.18 mM); 20 mM Tris pH 7, 150 mM NaCl, 0.5 mM TCEP, 25 µM ZnCl2, 0.1 mM PMSF
[3] = target: T2, huUHRF1-PHD(296–367) D334A; experiment: as above
[4] = target: T3, huUHRF1-PHD(296–367) D337A; experiment: as above

Binder | binding result [1] | Kd [2] [µM] | dH [2] [kcal/mol] | Kd [3] [µM] | Kd [4] [µM]
ARTKQTAR (peptide, UniProt P68431 2-9, looked up, histone H3 N-terminal tail, residues 1-8 (five of the eight seen in the map); also called unmodified histone H3 peptide; histone H3 tail) [short histone H3 peptide including residues 1–8, unmodified] | binds | – | – | – | –
ARTKQTARKSTGY (histone H3 N-terminal tail, residues 1-12; tyrosine after residue 12, read from the label '1–12Y'; also called unmodified H3; H3K4me0) [histone H3 peptide (1–12Y), unmodified] | – | 7.9 | -17.6 | > 500 | ~70

Continued, values first:

binding result [1] | Kd [2] [µM] | dH [2] [kcal/mol] | Kd [3] [µM] | Kd [4] [µM] | Binder
– | 17 | -14.1 | – | – | ARTAQTARKSTGY (histone H3 N-terminal tail, residues 1-12 with K4A; tyrosine after residue 12, read from the label '1–12Y'; also called H3K4A) [histone H3 peptide (1–12Y) with K4 mutated to alanine]
– | 25.9 | -11.6 | – | – | ARTK(Me3)QTARKSTGY (histone H3 N-terminal tail, residues 1-12; tyrosine after residue 12, read from the label '1–12Y'; also called H3K4me3) [histone H3 peptide (1–12Y) with trimethylated K4]
